Experimental data from PMC5770551.

Target: CbpAC (pneumococcal surface protein C variant) of nonencapsulated Streptococcus pneumoniae strain MNZ41 (Streptococcus pneumoniae (nonencapsulated strain MNZ41))
Test: flow cytometry on cells; 10^7 CFU viable pneumococci incubated with 200 µl of 10 µg/ml nonspecific mouse IgA for 1 h on ice; detected with biotinylated goat anti-mouse IgA and streptavidin-Alexa Fluor 488; percent positive cells gated above background

Substance nonspecific mouse IgA (antibody) has a percent positive cells (MNZ41 bacteria expressing CbpAC) of 58.6%.
